Assay results: article PMC8220720, “Universal capability of 3-ketosteroid Δ^1-dehydrogenases to catalyze Δ^1-dehydrogenation of C17-substituted steroids” (Microbial Cell Factories, 2021)

Tests used:
Assay in all cases: purified protein
Assay type in all cases: biochemical, Sterolibacterium denitrificans
[1] = substrate: C[C@]12CCC(=O)C=C1CC[C@@H]1[C@@H]2CC[C@]2(C)C(=O)CC[C@@H]12; conditions: pH 6.5; 30.0 °C
[2] = substrate: CC(C)CCC[C@@H](C)[C@H]1CC[C@H]2[C@@H]3CCC4=CC(=O)CC[C@]4(C)[C@H]3CC[C@]12C; conditions: apparent, as total steroid concentration, DCPIP as acceptor, 2% HBC, 2% EGME, 0.1 M potassium phosphate pH 6.5, 30 °C
[3] = substrate: O=C1C(Cl)=CC(=Nc2ccc(O)cc2)C=C1Cl; conditions: apparent, electron acceptor, co-substrate cholest-4-en-3-one, 2% HBC, 2% EGME, 0.1 M potassium phosphate pH 6.5, 30 °C

B1: AcmB (Sterolibacterium denitrificans) (protein)
chain: MSIETNTYDVIVVGSGAGAMLAAARAHDLGLSVLVVEKSDKYGGTSAVSGGAVWIPNNSQMQIKDSFDEALTYLKAATQGLVAEDRLLAYLESAPQMVEYINANMTLQYFPCHRYPDYYQHLPGAKPGGRTMEPMLFDAALLGDEFANLRMAYTGTLLMGKASMTATEAHVMLAKEPGWMLQVIKSLGRYYLDLPWRLKSRHDRKRGLGNAMAAGLRHALLERKVPLWLNTPFESLITEGAENKRVTGIVVKRNGQTLQLTARRGVVLGAGGFERNQQMREQYLPKPTNAAWSATPPHNTGDTIRAAMDIGARAELMDWAWWVPSIHVPGEAAQTGLFAERNLPGCIVVNGKGQRFINEASPYLEFGAAMYENHARSGSAVPAWLIFDGKFRYNYPMGPLMPGQIQPDRKAWLGKVYWRDDTLEGLAKQIGVDAAGLKQSVELNNQYAQDGKDREFDKGGNVFDRYYGDYNVKPNPCLAPIGKPPYYAMRVDAGDIGTKGGLLTDKDARVLDESDRPIEGLYCIGNNSASVMGKAYPGAGGTLGPAMTFGFRAANHIAASK
notes: recombinant, purified; cloned, expressed and purified as in the authors' earlier work; FAD enzyme
Which Km [1] does the source give for B1 here?
The Km was 529.2 ± 32.5 µM.

And the kcat/Km [1]?
Its kcat/Km is 87000 ± 5000 M⁻¹ s⁻¹.

What about the Km [2] of the same protein?
Its Km is 23.7 ± 1.16 µM.

What about the kcat [2] of the same protein?
The kcat was 5.8 ± 0.2 s⁻¹.

What about the kcat/Km [2] of the same protein?
Its kcat/Km is 245000 ± 1000 M⁻¹ s⁻¹.

And the Km [3]?
The Km was 37.3 ± 3.3 µM.

What about the kcat [3] of the same protein?
The kcat was 5.8 ± 0.2 s⁻¹.
